According to patent US20170037110A1 (IMMATICS BIOTECHNOLOGIES, published 2017):

Molecular target: T1, HLA-A*02:01 (human)
T1 construct: monomers captured on streptavidin plates; also called MHC class I
Test: UV peptide exchange ELISA
Description: Candidate peptides for T cell based therapies according to the present invention were further tested for their MHC binding capacity (affinity). The individual peptide-MHC complexes were produced by UV-ligand exchange, where a UV-sensitive peptide is cleaved upon UV-irradiation, and exchanged with the peptide of interest as analyzed. Only peptide candidates that can effectively bind and stabilize the peptide-receptive MHC molecules prevent dissociation of the MHC complexes. To determine the yield of the exchange reaction, an ELISA was performed based on the detection of the light chain (p2m) of stabilized MHC complexes.
96 well MAXISorp plates (NUNC) were coated over night with 2 μg/ml streptavidin in PBS at room temperature, washed 4× and blocked for 1 h at 37° C. in 2% BSA containing blocking buffer. […] Peptide-MHC monomers of the UV-exchange reaction were diluted 100 fold in blocking buffer. Samples were incubated for 1h at 37° C., washed four times, incubated with 2 μg/ml HRP conjugated anti-p2m for 1h at 37° C., washed again and detected with TMB solution that is stopped with […]. Absorption was measured at 450 nm.

Row | Binder | peptide exchange yield [%]
1 | SLTETIEGV | 20 to 50
2 | SLTEYLQNV | ≥ 75
3 | SLTIDGIYYV | ≥ 75
4 | SLTIDGIRYV | 50 to 75
